Data published in publication PMC9636186 (Nature Communications, 2022).

Biological target: ItcR itaconate-binding domain (IBD) (ItcR truncation of residues 80-292)
Test: SEC-MALS

ItcR itaconate-binding domain (IBD) (ItcR truncation of residues 80-292) (domain or fragment)
stoichiometry N: 2
